Reference: patent US20220031842A1 (JIANGSU HENGRUI MEDICINE, published 2022)

T1: Fusion protein of LAG-3 extracellular region and mIgG2a Fc (human)
T1 construct: Limits of the signal peptide are marked only by lost underlining; also called LAG-3-mFc; LAG-3-mFc fusion protein
T1 chain: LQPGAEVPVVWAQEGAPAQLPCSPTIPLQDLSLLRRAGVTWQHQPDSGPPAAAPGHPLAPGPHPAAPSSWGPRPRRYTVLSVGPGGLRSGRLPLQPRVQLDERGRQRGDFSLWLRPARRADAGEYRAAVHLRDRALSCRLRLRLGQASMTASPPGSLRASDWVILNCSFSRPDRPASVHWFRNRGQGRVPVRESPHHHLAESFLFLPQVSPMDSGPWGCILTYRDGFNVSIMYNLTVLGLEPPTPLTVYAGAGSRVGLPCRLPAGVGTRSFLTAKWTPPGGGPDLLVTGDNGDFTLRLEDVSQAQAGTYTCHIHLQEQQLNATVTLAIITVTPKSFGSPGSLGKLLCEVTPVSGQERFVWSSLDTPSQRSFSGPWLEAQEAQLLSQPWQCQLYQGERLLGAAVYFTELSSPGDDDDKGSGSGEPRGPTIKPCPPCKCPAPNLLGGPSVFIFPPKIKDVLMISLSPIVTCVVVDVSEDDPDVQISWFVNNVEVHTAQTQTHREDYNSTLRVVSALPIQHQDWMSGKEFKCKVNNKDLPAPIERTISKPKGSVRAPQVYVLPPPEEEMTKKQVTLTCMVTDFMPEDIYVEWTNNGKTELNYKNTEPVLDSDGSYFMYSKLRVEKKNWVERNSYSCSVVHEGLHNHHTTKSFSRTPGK


Columns and labels:
[1] = biological target: T1, Fusion protein of LAG-3 extracellular …; experiment: ELISA, LAG-3-mFc captured by anti-mouse Fc on plate (which fusion: inferred)
Text: The binding ability of anti-LAG-3 antibody to human LAG-3 protein was detected by ELISA assay. LAG-3 fusion protein with Fc or mFc tag was immobilized into 96-well microtiter plate by binding to anti-Fc or anti-mFc antibody coated on the microtiter plate, the strength of the signal after the addition of the antibody was used to determine the binding activity of the antibody to LAG-3, the specific experimental method is as follows.
The goat anti-human Fc antibody (Jackson Immuno Research, Cat No. 109-005-008) or goat anti-mouse Fc antibody (Sigma, Cat No. M3534-1ML) was diluted to a concentration of 2 μg/ml with PBS buffer at pH 7.4 (Sigma, Cat No. P4417-100TAB), and added to a 96-well plate at a volume of 50 μl/well and then, the plate was incubated in the incubator at 37° C. for 2 hours. After discarding the liquid, the plates were blocked with 200 μl/well of blocking solution containing 5% skim milk (Bright Dairy, skim milk powder) in PBS, and incubated in the incubator at 37° C. for 2.5 hours or overnight at 4° C. (16-18 hours). After blocking, the blocking solution was discarded and the plate was washed 5 times with PBST buffer (PH7.4 PBS containing 0.05% tween-20). LAG-3-Fc fusion protein (SEQ ID NO:3, produced in-house) or LAG-3-mFc fusion protein (SEQ ID NO: 4, produced in-house) was diluted with sample diluent (PH7.4 PBS containing 1% BSA) to 1 μg/ml and was added to each well, 50 μl/well. Then the plate was incubated in the incubator at 37° C. for 1 h or overnight at 4° C. After incubation, the reaction solution in the plate was discarded, and the plate was washed with PBST for 6 times, and then was added with 50 μl/well of various concentrations of antibodies to be tested (hybridoma purified antibody or humanized antibody) which have been diluted with sample diluent, and the plate was incubated at 37° C. for 1 h. The plates was washed 5 times with PBST after incubation, and was added with 100 μl/well of goat anti-mouse (Jackson Immuno Research, Cat No. 115-035-003) or goat anti-human secondary antibody (Jackson Immuno Research, Cat No. 109-035-003) labeled with HRP, diluted in sample diluent, and the plate was incubated at 37° C. for 1 h.

[2] = biological target: T2, Fusion protein of LAG-3 extracellular region and hIgG1 Fc (human); experiment: competition: biotin-LAG-3-Fc binding to fixed Daudi cells, antibody titrated
T2 construct: Limits of the signal peptide are marked only by lost underlining; also called LAG-3-Fc; LAG-3-Fc fusion protein
Procedure: Daudi cells (human leukemia cells, purchased from the cell bank in Chinese Academy of Sciences) were seeded in 96-well plate with a density of 3×10⁵/well. After centrifugation at 1000 rpm, the supernatant was discarded and then the plate was fixed with 4% PFA for 30 min at room temperature. The plate was washed 4 times with PBS after discarding the fixed solution, and the plate was blocked with 200 μl/well of blocking solution containing 5% skim milk (Bright Dairy, skim milk powder) diluted in PBS, and incubated at 37° C. for 2.5 hours. After blocking, the blocking solution was discarded and the plate was washed 5 times with PBST buffer (pH7.4 PBS containing 0.05% tween-20), added with 50 μl/well mixture of biotin-labeled (Biotin labeling kit, Dojindo Chemical, Cat No. LK03) LAG-3-Fc fusion protein (produced in-house, SEQ ID NO: 3) and gradient concentrations of the antibody to be tested, wherein the biotin-labeled LAG-3-Fc fusion protein has been diluted with sample diluent (PH7.4 PBS containing 1% BSA) at a final concentration of 0.4 μg/ml, and pre-mixed for an hour, then the plate was incubated at 37° C. for 1 h. The reaction solution was discarded and the plate was washed 5 times with PBST after incubation, 50 μl/well of HRP-labeled Streptavidin (Sigma, Cat No. 52438) diluted with sample diluent was added, and the plate was incubated at 37° C. for 1 h. After washing the plate 5 times with PBST, 50 μl/well of TMB chromogenic substrate (KPL, Cat No. 52-00-03) was added to each well, and incubated at room temperature for 5-15 min, the reaction was stopped by the addition of 50 μl 1M H₂SO₄ to each well. The OD value at a wavelength of 450 nm was read on NOVOStar microplate reader, and then the activity of the LAG-3 antibody in blocking the binding of the antigen to Daudi cells was calculated.

Binder | EC50 [1] [nM] | IC50 [2] [nM]
Hu229-008 (antibody, human IgG4 S228P, kappa, V domains shown, Humanized mAb229) VH: QVQLVQSGSELKKPGASVKVSCKASGYTFTTSGMSWVRQAPGQGLKWMGWINTYSGVPTYADDFKGRFVFSLDTSVSTAYLQISSLKAEDTAVYYCARDNYDARDVYYYAMDYWGQGTTVTVSS VL: DIQMTQSPSSLSASVGDRVTITCRASENIYSNLAWYQQKPGKAPKLLIYAATNLADGVPSRFSGSGSGTDFTLTISSLQPEDFATYYCQHFWITPWTFGGGTKVEIKR | 0.506 | 
Hu229-012 (antibody, human IgG4 S228P, kappa, V domains shown, Humanized mAb229) VH: QVQLVQSGSELKKPGASVKVSCKASGYTFTTSGMSWVKQAPGQGLKWMGWINTYSGVPTYADDFKGRFVFSLDTSVSTAYLQISSLKAEDTATYYCARDNYDARDVYYYAMDYWGQGTTVTVSS VL: DIQMTQSPSSLSASVGDRVTITCRASENIYSNLAWYQQKPGKAPKLLIYAATNLADGVPSRFSGSGSGTDFTLTISSLQPEDFATYYCQHFWITPWTFGGGTKVEIKR | 0.268 | 
Hu303-011 (antibody, human IgG4 S228P, kappa, V domains shown, Humanized mAb303) VH: QVQLVQSGAEVKKPGASVKVSCKASGYTFTDYYMNWVRQAPGQRLEWMGVINPYNGDTAYNQKFKGRVTITVDKSASTAYMELSSLRSEDTAVYYCTRDDGYYDYYFDVWGQGTTVTVSS VL: DIQMTQSPSSLSASVGDRVTITCRASQDIGSRLNWYQQKPGKAPKRLIYATSTLDSGVPKRFSGSRSGTDFTLTISSLQPEDFATYYCLQLASSPPTFGGGTKVEIKR | 0.314 | 0.728
Hu303-018 (antibody, human IgG4 S228P, kappa, V domains shown, Humanized mAb303) VH: QVQLVQSGAEVKKPGASVKVSCKASGYTLTDYYMNWVRQAPGQRLEWMGVINPYNGDTAYNQKFKGRVTITVDKSASTAYMELSSLRSEDTAVYYCTRDDGYYDYYFDVWGQGTTVTVSS VL: DIQMTQSPSSLSASVGDRVTLTCRASQDIGSRLNWLQQKPGGAFKRLIYATSTLDSGVPKRFSGSRSGTDFTLTISSLQPEDFADYYCLQLASSPPTFGGGTKVEIKR | 0.244 | 0.608
Hu303-019 (antibody, human IgG4 S228P, kappa, V domains shown, Humanized mAb303) VH: QVQLVQSGAEVKKPGASVKVSCKASGYTLTDYYMNWVRQAPGQRLEWIGVINPYNGDTAYNQKFKGRATLTVDKSASTAYMELSSLRSEDTAVYYCTRDDGYYDYYFDVWGQGTTVTVSS VL: DIQMTQSPSSLSASVGDRVTITCRASQDIGSRLNWYQQKPGKAPKLLIYATSTLDSGVPSRFSGSGSGTDFTLTISSLQPEDFATYYCLQLASSPPTFGGGTKVEIKR | 0.277 | 0.471

Binders with a lower EC50 [1], results first:

EC50 [1] [nM] | IC50 [2] [nM] | Binder
0.17 | 0.456 | Hu303-021 (antibody, human IgG4 S228P, kappa, V domains shown, Humanized mAb303) VH: QVQLVQSGAEVKKPGASVKVSCKASGYTLTDYYMNWVRQAPGQRLEWIGVINPYNGDTAYNQKFKGRATLTVDKSASTAYMELSSLRSEDTAVYYCTRDDGYYDYYFDVWGQGTTVTVSS VL: DIQMTQSPSSLSASVGDRVTITCRASQDIGSRLNWYQQKPGKAPKRLIYATSTLDSGVPKRFSGSRSGTDFTLTISSLQPEDFATYYCLQLASSPPTFGGGTKVEIKR
0.168 | 0.398 | Hu303-017 (antibody, human IgG4 S228P, kappa, V domains shown, Humanized mAb303) VH: QVQLVQSGAEVKKPGASVKVSCKASGYTLTDYYMNWVRQAPGQRLEWMGVINPYNGDTAYNQKFKGRVTITVDKSASTAYMELSSLRSEDTAVYYCTRDDGYYDYYFDVWGQGTTVTVSS VL: DIQMTQSPSSLSASVGDRVTITCRASQDIGSRLNWLQQKPGKAFKRLIYATSTLDSGVPKRFSGSRSGTDFTLTISSLQPEDFATYYCLQLASSPPTFGGGTKVEIKR
0.14 | 0.346 | Hu303-008 (antibody, human IgG4 S228P, kappa, V domains shown, Humanized mAb303) VH: QVQLVQSGAEVKKPGASVKVSCKASGYTFTDYYMNWVRQAPGQRLEWMGVINPYNGDTAYNQKFKGRVTITRDTSASTAYMELSSLRSEDTAVYYCARDDGYYDYYFDVWGQGTTVTVSS VL: DIQMTQSPSSLSASVGDRVTLTCRASQDIGSRLNWLQQKPGGAFKRLIYATSTLDSGVPKRFSGSRSGTDFTLTISSLQPEDFADYYCLQLASSPPTFGGGTKVEIKR
0.172 | 0.398 | Hu303-015 (antibody, human IgG4 S228P, kappa, V domains shown, Humanized mAb303) VH: QVQLVQSGAEVKKPGASVKVSCKASGYTLTDYYMNWVRQAPGQRLEWMGVINPYNGDTAYNQKFKGRVTITVDKSASTAYMELSSLRSEDTAVYYCTRDDGYYDYYFDVWGQGTTVTVSS VL: DIQMTQSPSSLSASVGDRVTITCRASQDIGSRLNWYQQKPGKAPKRLIYATSTLDSGVPSRFSGSRSGTDFTLTISSLQPEDFATYYCLQLASSPPTFGGGTKVEIKR
0.166 | 0.347 | Hu303-013 (antibody, human IgG4 S228P, kappa, V domains shown, Humanized mAb303) VH: QVQLVQSGAEVKKPGASVKVSCKASGYTFTDYYMNWVRQAPGQRLEWMGVINPYNGDTAYNQKFKGRVTITVDKSASTAYMELSSLRSEDTAVYYCTRDDGYYDYYFDVWGQGTTVTVSS VL: DIQMTQSPSSLSASVGDRVTLTCRASQDIGSRLNWLQQKPGGAFKRLIYATSTLDSGVPKRFSGSRSGTDFTLTISSLQPEDFADYYCLQLASSPPTFGGGTKVEIKR
0.135 | 0.343 | Hu303-007 (antibody, human IgG4 S228P, kappa, V domains shown, Humanized mAb303) VH: QVQLVQSGAEVKKPGASVKVSCKASGYTFTDYYMNWVRQAPGQRLEWMGVINPYNGDTAYNQKFKGRVTITRDTSASTAYMELSSLRSEDTAVYYCARDDGYYDYYFDVWGQGTTVTVSS VL: DIQMTQSPSSLSASVGDRVTITCRASQDIGSRLNWLQQKPGKAFKRLIYATSTLDSGVPKRFSGSRSGTDFTLTISSLQPEDFATYYCLQLASSPPTFGGGTKVEIKR
0.164 | 0.361 | Hu303-012 (antibody, human IgG4 S228P, kappa, V domains shown, Humanized mAb303) VH: QVQLVQSGAEVKKPGASVKVSCKASGYTFTDYYMNWVRQAPGQRLEWMGVINPYNGDTAYNQKFKGRVTITVDKSASTAYMELSSLRSEDTAVYYCTRDDGYYDYYFDVWGQGTTVTVSS VL: DIQMTQSPSSLSASVGDRVTITCRASQDIGSRLNWLQQKPGKAFKRLIYATSTLDSGVPKRFSGSRSGTDFTLTISSLQPEDFATYYCLQLASSPPTFGGGTKVEIKR
0.14 | 0.345 | Hu303-020 (antibody, human IgG4 S228P, kappa, V domains shown, Humanized mAb303) VH: QVQLVQSGAEVKKPGASVKVSCKASGYTLTDYYMNWVRQAPGQRLEWIGVINPYNGDTAYNQKFKGRATLTVDKSASTAYMELSSLRSEDTAVYYCTRDDGYYDYYFDVWGQGTTVTVSS VL: DIQMTQSPSSLSASVGDRVTITCRASQDIGSRLNWYQQKPGKAPKRLIYATSTLDSGVPSRFSGSRSGTDFTLTISSLQPEDFATYYCLQLASSPPTFGGGTKVEIKR
